Results taken from patent publication US20110002926A1 (MEDICAL RESEARCH COUNCIL, published 2011).
Read-outs that look alike come from different tables or passages of the source. Where no end group is shown, it is not given here.

Tests used:
[1] = biological target: HCV E1E2 glycoproteins of genotype 2a JFH1 on HCVpp (Hepatitis C virus genotype 2a, UniProt Q99IB8 384-750; Q99IB8 192-383); assay: cell-based or functional assay
[2] = biological target: HCV E1E2 glycoproteins of genotype 3a F4/2-35 on HCVpp (Hepatitis C virus genotype 3a); assay: cell-based or functional assay
[3] = biological target: HCV E1E2 glycoproteins of isolate 2A2.4 on HCVpp (Hepatitis C virus genotype 2); assay: cell-based or functional assay
[4] = biological target: HCV E1E2 glycoproteins of isolate 4.21.16 on HCVpp (Hepatitis C virus genotype 4); assay: cell-based or functional assay
[5] = biological target: HCV E1E2 glycoproteins of isolate 6.5.8 on HCVpp (Hepatitis C virus genotype 6); assay: cell-based or functional assay
[6] = biological target: HCV E1E2 glycoproteins of isolate 1A20.8 on HCVpp (Hepatitis C virus genotype 1); assay: cell-based or functional assay
[7] = biological target: HCV E1E2 glycoproteins of isolate 1B5.23 on HCVpp (Hepatitis C virus genotype 1); assay: cell-based or functional assay
[8] = biological target: HCV E1E2 glycoproteins of isolate 2B1.1 on HCVpp (Hepatitis C virus genotype 2); assay: cell-based or functional assay
[9] = biological target: HCV E1E2 glycoproteins of isolate 5.15.11 on HCVpp (Hepatitis C virus genotype 5); assay: cell-based or functional assay
Peptide D3 [10] = biological target: T1, Peptide D3 (also: C-terminal linker GSGK-biotin, biotin attachment not given here); assay: peptide ELISA, signal as percent of maximum H6 binding
T1 peptide: QLINTNGSWHINGSGK

E2 peptide B1 [11] = biological target: T2, E2 peptide B1 (not fully specified (residue 16, C-terminus); also: biotin at C-terminal GSGK, site not given here); assay: as above
T2 peptide: NLINTNGSWHINGSGK

[12] = biological target: T3, peptide H6 (AP33 mimotope) (not fully specified (residue 16, C-terminus); printed as VELRNLGGTWRPGSGK-biotin; also: biotin at C-terminal GSGK, site not given here); assay: peptide ELISA, biotinylated peptide on streptavidin, COS7 supernatant, OD 655 nm
T3 construct: Mimotope for AP33 identified by phage display; captured on streptavidin plates; also called mimotope H6; H6 mimotope
T3 peptide: VELRNLGGTWRPGSGK

Peptide D3 [13] = biological target: T1, Peptide D3; assay: as above
[14] = biological target: T3, peptide H6 (AP33 mimotope); assay: as above
Peptide D3 [15] = biological target: T1, Peptide D3; assay: as above
[16] = biological target: T3, peptide H6 (AP33 mimotope); assay: as above
E2 peptide B1 [17] = biological target: T2, E2 peptide B1; assay: as above
E2 peptide B1 [18] = biological target: T2, E2 peptide B1; assay: as above
E2 peptide B1 [19] = biological target: T2, E2 peptide B1; assay: as above
[20] = biological target: T3, peptide H6 (AP33 mimotope); assay: as above
E2 peptide B1 [21] = biological target: T2, E2 peptide B1; assay: as above
Peptide D3 [22] = biological target: T1, Peptide D3; assay: as above
[23] = biological target: T3, peptide H6 (AP33 mimotope); assay: as above
Peptide D3 [24] = biological target: T1, Peptide D3; assay: as above
[25] = biological target: T3, peptide H6 (AP33 mimotope); assay: as above
E2 peptide B1 [26] = biological target: T2, E2 peptide B1; assay: as above
E2 peptide B1 [27] = biological target: T2, E2 peptide B1; assay: as above

Sequence of HCV E1E2 glycoproteins of genotype 2a JFH1 on HCVpp (Q99IB8 384-750 limits assumed, chain 1 of 2): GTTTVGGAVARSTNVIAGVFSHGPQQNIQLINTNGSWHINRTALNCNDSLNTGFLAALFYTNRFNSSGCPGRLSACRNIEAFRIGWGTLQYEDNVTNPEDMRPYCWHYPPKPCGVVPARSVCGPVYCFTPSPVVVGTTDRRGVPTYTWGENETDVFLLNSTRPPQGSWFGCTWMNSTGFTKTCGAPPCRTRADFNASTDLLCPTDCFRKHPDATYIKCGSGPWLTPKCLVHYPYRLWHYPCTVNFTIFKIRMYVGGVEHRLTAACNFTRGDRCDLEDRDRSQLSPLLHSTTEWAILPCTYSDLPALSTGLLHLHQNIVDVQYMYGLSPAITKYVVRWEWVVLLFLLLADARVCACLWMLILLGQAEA
Sequence of HCV E1E2 glycoproteins of genotype 2a JFH1 on HCVpp (Q99IB8 192-383 limits assumed, chain 2 of 2): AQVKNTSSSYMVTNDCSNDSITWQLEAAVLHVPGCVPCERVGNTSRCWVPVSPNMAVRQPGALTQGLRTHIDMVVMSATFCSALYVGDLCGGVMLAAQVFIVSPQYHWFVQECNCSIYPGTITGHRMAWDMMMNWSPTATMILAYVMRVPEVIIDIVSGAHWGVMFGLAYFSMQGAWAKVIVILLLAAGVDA

B1: chimeric AP33 antibody (Vh/Vl) (antibody, V domains shown)
VH: EVQLQESGPSLVKPSQTLSLTCSVTGDSITSGYWNWIRKFPGNKLEYMGYISYSGSTYYNLSLRSRISITRDTSKNQYYLQLNSVTTEDTATYYCALITTTTYAMDYWGQGTSVTVS
VL: NIVLTQSPVSLAVSLGQRATISCRASESVDGYGNSFLHWFQQKPGQPPKLLIYLASNLNSGVPARFSGSGSRTDFTLTIDPVEADDAATYYCQQNNVDPWTFGGGTKLEIK
notes: also called chimeric antibody
[1]
  IC50 of HCVpp infection of Huh-7 cells (luciferase): 1.1 mg/L
  IC90 of HCVpp infection of Huh-7 cells (luciferase): 9.31 mg/L
[2]
  IC50 of HCVpp infection of Huh-7 cells (luciferase): 0.48 mg/L
  IC90 of HCVpp infection of Huh-7 cells (luciferase): 3.2 mg/L
[3]
  IC50 of HCVpp infection of Huh-7 cells (luciferase): 0.88 mg/L
  IC90 of HCVpp infection of Huh-7 cells (luciferase): 6.67 mg/L
[4]
  IC50 of HCVpp infection of Huh-7 cells (luciferase): < 0.137 mg/L
  IC90 of HCVpp infection of Huh-7 cells (luciferase): 0.83 mg/L
[5]
  IC50 of HCVpp infection of Huh-7 cells (luciferase): < 0.137 mg/L
  IC90 of HCVpp infection of Huh-7 cells (luciferase): 3.7 mg/L
[6]
  IC50 of HCVpp infection of Huh-7 cells (luciferase): 1.1 mg/L
  IC90 of HCVpp infection of Huh-7 cells (luciferase): 11.5 mg/L
[7]
  IC50 of HCVpp infection of Huh-7 cells (luciferase): 1.15 mg/L
  IC90 of HCVpp infection of Huh-7 cells (luciferase): 11 mg/L
[8]
  IC50 of HCVpp infection of Huh-7 cells (luciferase): 3 mg/L
  IC90 of HCVpp infection of Huh-7 cells (luciferase): > 15 mg/L
[9]
  IC50 of HCVpp infection of Huh-7 cells (luciferase): 0.088 mg/L
  IC90 of HCVpp infection of Huh-7 cells (luciferase): 1.11 mg/L
Peptide D3 [10]
  EC50 (read off the curve): ~0.02 mg/L

B2: humanized AP33 antibody RHb-h/RK2bc (antibody, V domains shown)
VH: QVQLQESGPGLVKPSETLSLTCTVSGDSITSGYWNWIRQPPGRALEYMGYISYSGSTYYNLSLRSRITISRDTSKNQYSLRLSSVTAADTAMYYCALITTTTYAMDYWGQGTTVTVS
VL: EIVLTQSPSSLSASVGDRVTITCRASESVDGYGNSFLHWFQQKPGKAPKLLIYLASNLNSGVPSRFSGSGSRTDFTLTISSLQPEDFATYYCQQNNVDPWTFGQGTKLEIK
notes: also called RHbcdefgh/RK2bc; RHb-h standard
E2 peptide B1 [11]
  binding result: no binding (tested: at least about 500 ng/ml)
[12]
  EC50 (read off the curve): ~0.04 mg/L
Peptide D3 [13]
  EC50 (read off the curve): ~0.05 mg/L
[14]
  EC50 (read off the curve): ~0.04 mg/L

B3: AP33 RH-D/RK2bc (antibody, V domains shown)
VH: QVQLQESGPGLVKPSETLSLTCTVSGDSITSGYWNWIRQPPGRALEYIGYISYSGSTYYNLSLRSRITISRDTSKNQYSLRLSSVTAADTAMYYCALITTTTYAMDYWGQGTTVTVS
VL: EIVLTQSPSSLSASVGDRVTITCRASESVDGYGNSFLHWFQQKPGKAPKLLIYLASNLNSGVPSRFSGSGSRTDFTLTISSLQPEDFATYYCQQNNVDPWTFGQGTKLEIK
Peptide D3 [15]
  EC50 (read off the curve): ~0.04 mg/L
[16]
  EC50 (read off the curve): ~0.04 mg/L
E2 peptide B1 [17]
  binding result: no binding (tested: about 900 ng/ml)

B4: AP33 RH-E/RK2bc (antibody, V domains shown)
VH: QVQLQESGPGLVKPSETLSLTCTVSGDSITSGYWNWIRQPPGRALEYMGYISYSGSTYYNLSLRSRVTISRDTSKNQYSLRLSSVTAADTAMYYCALITTTTYAMDYWGQGTTVTVS
VL: EIVLTQSPSSLSASVGDRVTITCRASESVDGYGNSFLHWFQQKPGKAPKLLIYLASNLNSGVPSRFSGSGSRTDFTLTISSLQPEDFATYYCQQNNVDPWTFGQGTKLEIK
E2 peptide B1 [18]
  binding result: no binding (tested: about 800 ng/ml)

B5: humanized AP33 antibody RH-F/RK2bc (antibody, V domains shown)
VH: QVQLQESGPGLVKPSETLSLTCTVSGDSITSGYWNWIRQPPGRALEYMGYISYSGSTYYNLSLRSRITISVDTSKNQYSLRLSSVTAADTAMYYCALITTTTYAMDYWGQGTTVTVS
VL: EIVLTQSPSSLSASVGDRVTITCRASESVDGYGNSFLHWFQQKPGKAPKLLIYLASNLNSGVPSRFSGSGSRTDFTLTISSLQPEDFATYYCQQNNVDPWTFGQGTKLEIK
E2 peptide B1 [19]
  binding result: no binding (tested: about 500 ng/ml)

B6: humanized AP33 antibody RH-G/RK2bc (antibody, V domains shown)
VH: QVQLQESGPGLVKPSETLSLTCTVSGDSITSGYWNWIRQPPGRALEYMGYISYSGSTYYNLSLRSRITISRDTSKNQFSLRLSSVTAADTAMYYCALITTTTYAMDYWGQGTTVTVS
VL: EIVLTQSPSSLSASVGDRVTITCRASESVDGYGNSFLHWFQQKPGKAPKLLIYLASNLNSGVPSRFSGSGSRTDFTLTISSLQPEDFATYYCQQNNVDPWTFGQGTKLEIK
[20]
  EC50 (read off the curve): ~0.03 mg/L
E2 peptide B1 [21]
  binding result: no binding (tested: about 700 ng/ml)

B7: humanized AP33 antibody RH-H/RK2bc (antibody, V domains shown)
VH: QVQLQESGPGLVKPSETLSLTCTVSGDSITSGYWNWIRQPPGRALEYMGYISYSGSTYYNLSLRSRITISRDTSKNQYSLRLSSVTAADTAMYYCARITTTTYAMDYWGQGTTVTVS
VL: EIVLTQSPSSLSASVGDRVTITCRASESVDGYGNSFLHWFQQKPGKAPKLLIYLASNLNSGVPSRFSGSGSRTDFTLTISSLQPEDFATYYCQQNNVDPWTFGQGTKLEIK
notes: also called RH-H (peptide ELISA, paired with RK2bc)
E2 peptide B1 [11]
  binding result: no binding (tested: at least about 500 ng/ml)
Peptide D3 [22]
  EC50 (read off the curve): ~0.04 mg/L
[23]
  EC50 (read off the curve): ~0.03 mg/L

B8: humanized AP33 antibody RH-C/RK2bc (antibody, V domains shown)
VH: QVQLQESGPGLVKPSETLSLTCTVSGDSITSGYWNWIRQPPGRALEWMGYISYSGSTYYNLSLRSRITISRDTSKNQYSLRLSSVTAADTAMYYCALITTTTYAMDYWGQGTTVTVSS
VL: EIVLTQSPSSLSASVGDRVTITCRASESVDGYGNSFLHWFQQKPGKAPKLLIYLASNLNSGVPSRFSGSGSRTDFTLTISSLQPEDFATYYCQQNNVDPWTFGQGTKLEIK
notes: also called RH-C (peptide ELISA, paired with RK2bc)
Peptide D3 [24]
  EC50 (read off the curve): ~0.05 mg/L
[25]
  EC50 (read off the curve): ~0.04 mg/L
E2 peptide B1 [26]
  binding result: no binding (tested: about 2000 ng/ml)

B9: AP33 RH-B/RK2bc (antibody, V domains shown)
VH: QVQLQESGPGLVKPSETLSLTCTVSGDSISSGYWNWIRQPPGRALEYMGYISYSGSTYYNLSLRSRITISRDTSKNQYSLRLSSVTAADTAMYYCALITTTTYAMDYWGQGTTVTVSS
VL: EIVLTQSPSSLSASVGDRVTITCRASESVDGYGNSFLHWFQQKPGKAPKLLIYLASNLNSGVPSRFSGSGSRTDFTLTISSLQPEDFATYYCQQNNVDPWTFGQGTKLEIK
E2 peptide B1 [27]
  binding result: no binding (tested: about 800 ng/ml)
